Assay results taken from US20030092616A1, “STAT6 activation gene” (priority 2001, published 2003).

Tested on: STAT6
Experiment: Screening of full-length cDNA clones for promotion of STAT6 activation (luciferase reporter N4×8-luc)
Format: cell-based
Conditions: NIH3T3 cells cotransfected with N4×8-luc reporter and cDNA plasmid; 48 h culture, then mouse IL-4 0.5 ng/ml for 6 h
Method: As a preferable method, NIH3T3 cells are inoculated on 10% FBS (Fetal Bovine Serum)-containing IMDM medium in a 96-well cell culture plate to a final cell density of 1×10^4 cells/well, and cultured for 24 hours at 37° C., in the presence of 5% CO2. Then, the luciferase reporter plasmid N4×8-luc which has a STAT6 response sequence, and the expression vector are cotransfected into the cells in a well using FuGENE 6 (Roche). After 48 hours of culture at 37° C., in the presence of 5% CO2 mouse IL-4 (Immuno Biological Laboratories Co., Ltd.) is added to a final concentration of 0.5 ng/ml. After culturing for further 6 hours, promoting activity for STAT6 activation is then measured by measuring luciferase activity using a long term luciferase assay system, Picagene LT2.0 (Toyo Ink Mfg). For example, luciferase activity can be measured using PerkinElmer's Wallac ARVOTMST 1420 MULTILABEL COUNTER. The method for gene introduction by FuGENE6, and measurement of luciferase activity by Picagene LT2.0 can be performed respectively according to the attached protocols. In a method of gene introduction with a 96-well plate using FuGENE6, the amount of FuGENE6 per 1 well is suitably 0.3 to 0.5 μl, preferably 0.3 μl; the amount of N4×8-luc reporter plasmid is suitably 50 to 100 ng, preferably 100 ng; and the amount of expression vector is suitably 50 to 100 ng, preferably 100 ng. An ability (action) to promote STAT6 activation refers to an ability to increase the reporter activity (luciferase activity) relative to the control experiment (for cells into which the reporter gene and a null vector were introduced). Increase in reporter activity is preferably by a factor of 1.5 or more, more preferably by a factor of 3 or more, and still more preferably by a factor of 6 or more.
NIH3T3 cells (purchased from Dainippon Pharmaceutical) were grown to 1×10^4 cells/well in a 96 well plate for cell culture for 24 hours at 37° C. (in the presence of 5% CO2) using 10% FBS containing IMDM medium. Then, 100 ng of luciferase reporter plasmid N4×8-luc having a STAT6 response sequence and 2 μl of the full-length cDNA prepared in above Example 1.(3) were cotransfected into the cells in a well using FuGENE 6 (purchased from Roche) according to the manufacturer's protocol. The luciferase reporter plasmid N4×8-luc having the STAT6 response sequence was constructed as follows. […] 157, 2058-2065 (1996)], oligonucleotides having the following sequences were synthesized:
The synthesized oligonucleotides were dissolved in sterile water to be 1μg/μl, respectively, mixed in 10 μl lots, and adjusted the volume to 32 μl with sterile water. The solution was heated for 5 min at 90° C., and gradually cooled down to room temperature to prepare a double-stranded oligonucleotide solution. The solution was reacted with T4 polynucleotide kinase (Takara Shuzo) according to the attached manual, then the reaction product was purified in a usual manner. Separately, SV40 promoter region of pGL3-Promoter vector (Promega) was replaced by the HSV thymidine kinase promoter sequence (from −50 to +10) with Hind III site and BglII site to construct a vector tk-luc. The aforesaid double-stranded oligonucleotide fragments were inserted into the XhoI site of this tk-luc vector using T4 DNA ligase (GIBCO/BRL). The obtained clones were sequenced according to a usual method, and clones in which plural oligonucleotide fragments were inserted were selected. […] The four-interlinked DNA fragments were excised from the N4×4-luc with a XhoI and a BglII site and purified to be inserted into a BamHI and a XhoI site of pBluescript II KS+ (Stratagene). The four-interlinked DNA fragments were excised from this plasmid with KpnI and SpeI and inserted into a KpnI and a NheI site of N4×4-luc plasmid to finally obtain N4×8-luc.

Molecule | Activity = (luciferase activity of the gene of each SEQ ID NO:)/(luciferase activity of pME18S-FL3)
261 (nucleic acid, listed as Homo sapiens, CDS (12)..(1034)) AGTGCGCGAAGATGCGAAAGGTGGTTTTGATCACCGGGGCTAGCAGTGGCATTGGCCTGGCCCTCTGCAAGCGGCTGCTGGCGGAAGATGATGAGCTTCATCTGTGTTTGGCGTGCAGGAACATGAGCAAGGCAGAAGCTGTCTGTGCTGCTCTGCTGGCCTCTCACCCCACTGCTGAGGTCACCATTGTCCAGGTGGATGTCAGCAACCTGCAGTCGGTCTTCCGGGCCTCCAAGGAACTTAAGCAAAGGTTTCAGAGATTAGACTGTATATATCTAAATGCTGGGATCATGCCTAATCCACAACTAAATATCAAAGCACTTTTCTTTGGCCTCTTTTCAAGAAAAGTGATTCATATGTTCTCCACAGCTGAAGGCCTGCTGACCCAGGGTGATAAGATCACTGCTGATGGACTTCAGGAGGTGTTTGAGACCAATGTCTTTGGCCATTTTATCCTGATTCGGGAACTGGAGCCTCTCCTCTGTCACAGTGACAATCCATCTCAGCTCATCTGGACATCATCTCGCAGTGCAAGGAAATCTAATTTCAGCCTCGAGGACTTCCAGCACAGCAAAGGCAAGGAACCCTACAGCTCTTCCAAATATGCCACTGACCTTTTGAGTGTGGCTTTGAACAGGAACTTCAACCAGCAGGGTCTCTATTCCAATGTGGCCTGTCCAGGTACAGCATTGACCAATTTGACATATGGAATTCTGCCTCCGTTTATATGGACGCTGTTGATGCCGGCAATATTGCTACTTCGCTTTTTTGCAAATGCATTCACTTTGACACCATATAATGGAACAGAAGCTCTGGTATGGCTTTTCCACCAAAAGCCTGAATCTCTCAATCCTCTGATCAAATATCTGAGTGCCACCACTGGCTTTGGAAGAAATTATATTATGACCCAGAAGATGGACCTAGATGAAGACACTGCTGAAAAATTTTATCAAAAGTTACTGGAACTGGAAAAGCACATTAGGGTCACTATTCAAAAAACAGATAATCAGGCCAGGCTCAGTGGCTCATGCCTATAATTCCAGCACTTTGGGAGGCCAAGGCAGAAGGATCACTTGAGACCAGGAGTTCAAGACCAGCCTGAGAAACATAGTGAGCCCTTGTCTCTACAAAAAGAAATAAAAATAATAGCTGGGTGTGGTGGCATGCGCATGTAGTCCCAGCTACTCAGAAGGATGAGGTGGGAGGATCTCTTGAGGCTGGGAGGCAGAGGTTGCAGTGAGCTGAGATTGTGCCACTGCACTCCAGCCTGGGTGACAGCGAGACCCTGTCTCAAAATATGTATATATTTAATATATATATAAAACCAGAGCTGACAATGACACTCTGGAACATTGCATACCTTCTGTACATTCTGGGGTACATGGATTTCTACTGAGTTGGATAATATGCATTTGTAATAAACTATGAACTATG | 14.7
69 (nucleic acid, listed as Homo sapiens, CDS (31)..(687)) AGTGTTTGGGTTTCTTCGCGGCTGCTCAAGATGAACCGACTCTTCGGGAAAGCGAAACCCAAGGCTCCGCCGCCCAGCCTGACTGACTGCATTGGCACGGTGGACAGTAGAGCAGAATCCATTGACAAGAAGATTTCTCGATTGGATGCTGAGCTAGTGAAGTATAAGGATCAGATCAAGAAGATGAGAGAGGGTCCTGCAAAGAATATGGTCAAGCAGAAAGCCTTGCGAGTTTTAAAGCAAAAGAGGATGTATGAGCAGCAGCGGGACAATCTTGCCCAACAGTCATTCAACATGGAACAAGCCAATTATACCATCCAGTCTTTGAAGGACACCAAGACCACGGTTGATGCTATGAAACTGGGAGTAAAGGAAATGAAGAAGGCATACAAGCAAGTGAAGATCGACCAGATTGAGGATTTACAAGACCAGCTAGAGGATATGATGGAAGATGCAAATGAAATCCAAGAAGCACTGAGTCGCAGTTATGGCACCCCAGAACTGGATGAAGATGATTTAGAAGCAGAGTTGGATGCACTAGGTGATGAGCTTCTGGCTGATGAAGACAGTTCTTATTTGGATGAGGCAGCATCTGCACCTGCAATTCCAGAAGGTGTTCCCACTGATACAAAAAACAAGGATGGAGTTCTGGTGGATGAATTTGGATTGCCACAGATCCCTGCTTCATAGATTTGCATCATTCAAGCATATCTTGTAAAACAAACACATATTATGGGACTAGGAAATATTTATCTTTCCAAATTTGCCATAACAGATTTAGGTTTCTTTCCTTTCTTTGAAGGAAAGTTTAATTACATTGCTCTTTTATTTTTTCCATTAAGAGACTCATTGCTTGGGAAATGCTTTCTTCGTACTAAAATTTGATTCCTTTTTTTCTTATGAAAAACGAACTCAGTTTAAAAGTATTTTTAGCTCGTATGACTTGTTTTCATTCATTAATAATAATTTGAAATAAAACTAAGGAAATGGAATCTTAAAAGTCTATGACAGTGTAACTCTACAGTCTCAAAATGACCTGATAAATTGATAAGACAAAGATGAGATTATTGGGGCTGTTCATATTATGATTCAGAATCATTTTCTATTGTGGTATTATAGGTTGGTTAAAGTGATGGCCTTTTTGATGGGTTTTGTTGTGTCTTGTGAACAAGTCGTTACTGTGTCCATTATTGGAATGGAATTATCACTACTGTATCATGAGTGGGTATTTTGATTCTATGGTTCCCTCAGTATTACATCTTGACTTGTAATCAATTATGAATATTTCTTGATATTTAATGTATAGGACATTTATTTATACTCAATAAATATTTTTCAAAAGG | 11.7
275 (nucleic acid, listed as Homo sapiens, CDS (14)..(598)) GCAGACCCCCATCATGGGCAGCCAGAGCTCCAAGGCTCCCCGGGGCGACGTGACCGCCGAGGAGGCAGCAGGCGCTTCCCCCGCGAAGGCCAACGGCCAGGAGAATGGCCACGTGAAAAGCAATGGAGACTTATCCCCCAAGGGTGAAGGGGAGTCGCCCCCTGTGAACGGAACAGATGAGGCAGCCGGGGCCACTGGCGATGCCATCGAGCCAGCACCCCCTAGCCAGGGTGCTGAGGCCAAGGGGGAGGTCCCCCCCAAGGAGACCCCCAAGAAGAAGAAGAAATTCTCTTTCAAGAAGCCTTTCAAATTGAGCGGCCTGTCCTTCAAGAGAAATCGGAAGGAGGGTGGGGGTGATTCTTCTGCCTCCTCACCCACAGAGGAAGAGCAGGAGCAGGGGGAGATCGGTGCCTGCAGCGACGAGGGCACTGCTCAGGAAGGGAAGGCCGCAGCCACCCCTGAGAGCCAGGAACCCCAGGCCAAGGGGGCAGAGGCTAGTGCAGCCTCAGAAGAAGAGGCAGGGCCCCAGGCTACAGAGCCATCCACTCCCTCGGGGCCGGAGAGTGGCCCTACACCAGCCAGCGCTGAGCAGAATGAGTAGCTAGGTAGGGGCAGGTGGGTGATCTCTAAGCTGCAAAAACTGTGCTGTCCTTGTGAGGTCACTGCCTGGACCTGGTGCCCTGGCTGCCTTCCTGTGCCCAGAAAGGAAGGGGCTATTGCCTCCTCCCAGCCACGTTCCCTTTCCTCCTCTCCCTCCTGTGGATTCTCCCATCAGCCATCTGGTTCTCCTCTTAAGGCCAGTTGAAGATGGTCCCTTACAGCTTCCCAAGTTAGGTTAGTGATGTGAAATGCTCCTGTCCCTGGCCCTACCTCCTTCCCTGTCCCCACCCCTGCATAAGGCAGTTGTTGGTTTTCTTCCCCAATTCTTTTCCAAGTAGGTTTTGTTTACCCTACTCCCCAAATCCCTGAGCCAGAAGTGGGGTGCTTATACTCCCAAACCTTGAGTGTCCAGCCTTCCCCTGTTGTTTTTAGTCTCTTGTGCTGTGCCTAGTGGCACCTGGGCTGGGGAGGACACTGCCCCGTCTAGGTTTTTATAAATGTCTTACTCAAGTTCAAACCTCCAGCCTGTGAATCAACTGTGTCTCTTTTTTGACTTGGTAAGCAAGTATTAGGCTTTGGGGTGGGGGGAGGTCTGTAATGTGAAACAACTTCTTGTCTTTTTTTCTCCCACTGTTGTAAATAACTTTTAATGGCCAAACCCCAGATTTGTACTTTTTTTTTTTTTCTAACTGCTAAAACCATTCTCTTCCACCTGGTTTTACTGTAACATTTGG | 17.0
291 (nucleic acid, listed as Homo sapiens, CDS (16)..(456)) CGCCATCCCTGACCCATGGCGCTGAAGAGGATTCAGAAAGAATTGAGTGATCTACAGCGCGATCCACCTGCTCACTGTTCAGCTGGACCTGTGGGAGATGACTTGTTCCACTGGCAAGCCACTATTATGGGGCCTCCTGATAGCGCATATCAAGGTGGAGTCTTCTTTCTCACTGTACATTTTCCGACAGATTATCCTTTTAAACCACCAAAGATTGCTTTCACAACAAAAATTTACCATCCAAACATAAACAGTAATGGAAGTATTTGTCTCGATATTCTGAGGTCACAATGGTCACCAGCTCTGACTGTATCAAAAGTTTTATTGTCCATATGTTCTCTACTTTGTGATCCTAATCCAGATGACCCCTTAGTACCAGATATTGCACAAATCTATAAATCAGACAAAGAAAAATACAACAGACATGCAAGAGAATGGACTCAGAAATATGCAATGTAA | 13.0
